Measured values published in patent US20230312753A1 (IMMUNORIZON, published 2023).

Legend:
[1] = molecular target: T1, hCD3epsilon-His (recombinant human CD3 epsilon) (human, UniProt P07766 23-126); assay: ELISA on coated hCD3epsilon-His (FIG. 43A)
T1 construct: Bought protein; also called recombinant hCD3ε protein; human CD3ε
Procedure: Methods: ELISA binding of Tribody/ProTribody antibody constructs to antigens: Dilute target protein (hCD3epsilon-His (cat # 10977-H08S, supplier Sino Biological); h5T4-His (cat# 19845-H08H, supplier Sino Biological); NKG2A-CD94-ECD-hFc, Lot:20200724002, provided by CP; or NKG2D-ECD-hFc, Lot: 20200413002, provided by CP) into PBS with final concentration of 0.01 µg/mL for hCD3epsilon-His, 0.3 µg/mL for h5T4-His, 1 µg/mL for NKG2A-CD94-ECD-hFc and 0.7 µg/mL for hNKG2D-ECD-hFc respectively and coat 100 µL/well on ELISA plate (cat: 9018, supplier Corning) respectively. Incubate O/N, 4° C. The plates were blocked with 250 µL 1% BSA in PBST for 1 hr at 37° C.Wash 4 times with PBST. All the washes are done using Biotek (Elx 405). All the Tribody set antibodies were diluted to 400 nM and make 4-fold serially dilutions (12 points, including 0 point). Add 100 µL/well diluted antibody constructs solution to plate, incubate for 1 hr at 37° C.Wash 4 times with PBST. Add 100 µL/well anti-human kappa light chain-HRP (1:10000), incubate for 0.5 hr at 37° C. Wash 4 times with PBST. 100 µL/well of TMB substrate was added and incubated at room temperature for 5 min. 100 µL/well of 1N HCl to terminate reaction. Plates were read using ELISA plate reader at 450 nm wavelength (instrunet SpectraMax M5e). […]

NKG2A-CD94-ECD-hFc = molecular target: T2, NKG2A-CD94-ECD-hFc (human, UniProt P26715 94-233; Q13241 32-179, limits assumed); assay: ELISA on coated NKG2A-CD94-ECD-hFc (FIG. 43D)
T2 construct: extracellular domain; Lot 20200724002, 'provided by CP'; the two-chain layout here is only the reading of the name; also called human NKG2A (recombinant); NKG2A antigen; not shown: human Fc (hFc)
Procedure: Methods: ELISA binding of Tribody/ProTribody antibody constructs to antigens: Dilute target protein (hCD3epsilon-His (cat # 10977-H08S, supplier Sino Biological); h5T4-His (cat# 19845-H08H, supplier Sino Biological); NKG2A-CD94-ECD-hFc, Lot:20200724002, provided by CP; or NKG2D-ECD-hFc, Lot: 20200413002, provided by CP) into PBS with final concentration of 0.01 µg/mL for hCD3epsilon-His, 0.3 µg/mL for h5T4-His, 1 µg/mL for NKG2A-CD94-ECD-hFc and 0.7 µg/mL for hNKG2D-ECD-hFc respectively and coat 100 µL/well on ELISA plate (cat: 9018, supplier Corning) respectively. Incubate O/N, 4° C. The plates were blocked with 250 µL 1% BSA in PBST for 1 hr at 37° C.Wash 4 times with PBST. All the washes are done using Biotek (Elx 405). All the Tribody set antibodies were diluted to 400 nM and make 4-fold serially dilutions (12 points, including 0 point). Add 100 µL/well diluted antibody constructs solution to plate, incubate for 1 hr at 37° C.Wash 4 times with PBST. Add 100 µL/well anti-human kappa light chain-HRP (1:10000), incubate for 0.5 hr at 37° C. Wash 4 times with PBST. 100 µL/well of TMB substrate was added and incubated at room temperature for 5 min. 100 µL/well of 1N HCl to terminate reaction. Plates were read using ELISA plate reader at 450 nm wavelength (instrunet SpectraMax M5e). Data Analysis was performed using Graphpad prism 5 software by using nonlinear regression (curve fit): log (agonist) vs. response, agonist is antibody concentration (nM) and response is OD value.

[2] = molecular target: T3, 5T4 on cells (NCI-H226 endogenous; CHO over-expressing 5T4) (UniProt Q13641 32-420, limits assumed); assay: FACS on NCI-H226 cells, endogenous 5T4 (FIG. 45B)
T3 construct: whole, on cells
T3 sequence (looked up): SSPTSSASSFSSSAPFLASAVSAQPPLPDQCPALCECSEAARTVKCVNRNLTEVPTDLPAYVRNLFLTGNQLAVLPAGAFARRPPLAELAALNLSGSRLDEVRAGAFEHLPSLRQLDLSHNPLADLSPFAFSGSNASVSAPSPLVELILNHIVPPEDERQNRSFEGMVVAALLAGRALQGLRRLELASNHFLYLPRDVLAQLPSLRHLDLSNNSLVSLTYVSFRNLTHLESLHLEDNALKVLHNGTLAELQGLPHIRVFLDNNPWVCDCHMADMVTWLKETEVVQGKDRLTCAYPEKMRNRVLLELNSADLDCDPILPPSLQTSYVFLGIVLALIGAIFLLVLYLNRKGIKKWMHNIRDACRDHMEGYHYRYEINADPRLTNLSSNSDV
Procedure: Suspension cultured cells was harvested directly, and adherent cell were digested using TrypLE Express Enzyme (cat: 12604-013, supplier Life technologies). Centrifuge at 1000 rpm for 5 min and discard the supernatant. Cells are suspended at a concentration of 2×10⁶/mL in FACS buffer (2% FBS in PBS) and add 100 µL/well of cell suspension to the plate (cat #3799, supplier Corning). Centrifuging the plates at 2000 rpm for 5 min and discard the supernatant. Re-suspend the cells in 100 µL/well of Tribody set antibodies (400 nM start, 4-fold dilution, 8 point including 0 point) and incubate the plate for 60 min at 4° C. Centrifuge the plate at 2000 rpm, 4° C. for 5 min and discard supernatant. Then wash the cells 3 times with 170 µL FACS buffer. Re-suspend the cells at 100 µL/well with secondary antibody (goat anti-human Ig Fab-FITC, Cat # 2085-02, Southern biotech) with 1:400 dilution and incubate the plate for 30 min at 4° C. in dark. Centrifuge the plate at 2000 rpm, 4° C. for 5 min and discard supernatant. […] The fluorescence intensity of the staining was measured using flow cytometer (BD, FACSVerse). The geometric mean fluorescence intensity (GMFI; median fluorescence intensity (MFI)) of set antibodies staining was calculated (BD FACSuite software). Dose-response curves were generated and EC50s for thetrispecific variants binding were calculated using GraphPad Prism software.

[3] = molecular target: T3, 5T4 on cells (NCI-H226 endogenous; CHO …); assay: FACS on CHO cells over-expressing ectopic 5T4 (FIG. 45D)
Procedure: (§1) Then wash the cells 3 times with 170 µL FACS buffer. Re-suspend the cells at 100 µL/well with secondary antibody (goat anti-human Ig Fab-FITC, Cat # 2085-02, Southern biotech) with 1:400 dilution and incubate the plate for 30 min at 4° C. in dark. Centrifuge the plate at 2000 rpm, 4° C. for 5 min and discard supernatant. Then wash the cells 3 times with FACS buffer and analyze the sample with FACS verse. The fluorescence intensity of the staining was measured using flow cytometer (BD, FACSVerse). The geometric mean fluorescence intensity (GMFI; median fluorescence intensity (MFI)) of set antibodies staining was calculated (BD FACSuite software). Dose-response curves were generated and EC50s for thetrispecific variants binding were calculated using GraphPad Prism software.
(§2) Results: The expressed trispecific constructs were analyzed for their binding to cells expressing endogenous CD3ε, 5T4 and NKG2A/NKG2D. […] (FIG. 45F).

[4] = molecular target: T4, NKG2A/CD94 on CHO cells (CHOK1-NKG2A-CD94) (human, UniProt P26715 1-233; Q13241 1-179, limits assumed); assay: FACS on CHO cells over-expressing human NKG2A (FIG. 45F)
T4 construct: whole, on cells; also called CHO cells over-expressing NKG2A/CD94; CHO cell line over expressing ectopic NKG2A
Procedure: as §1, §2

T1 sequence (P07766 23-126 limits assumed): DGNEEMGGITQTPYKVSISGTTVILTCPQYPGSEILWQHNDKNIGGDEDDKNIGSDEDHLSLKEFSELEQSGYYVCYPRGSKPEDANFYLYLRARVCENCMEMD
T4 sequence (P26715 whole entry, chain 1 of 2): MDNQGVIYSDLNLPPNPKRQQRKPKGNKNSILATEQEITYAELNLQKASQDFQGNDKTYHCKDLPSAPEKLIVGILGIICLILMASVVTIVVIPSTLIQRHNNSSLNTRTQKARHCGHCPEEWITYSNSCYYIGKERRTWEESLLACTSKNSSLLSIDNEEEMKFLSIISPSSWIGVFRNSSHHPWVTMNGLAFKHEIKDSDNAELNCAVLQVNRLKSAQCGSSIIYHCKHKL
T4 sequence (Q13241 whole entry, chain 2 of 2): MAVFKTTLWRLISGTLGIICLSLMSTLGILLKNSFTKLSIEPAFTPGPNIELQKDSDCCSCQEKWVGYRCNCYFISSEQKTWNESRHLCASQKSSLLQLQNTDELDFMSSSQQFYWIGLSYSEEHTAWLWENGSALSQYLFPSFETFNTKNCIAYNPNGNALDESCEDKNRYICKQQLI
T2 sequence (P26715 94-233 limits assumed, chain 1 of 2): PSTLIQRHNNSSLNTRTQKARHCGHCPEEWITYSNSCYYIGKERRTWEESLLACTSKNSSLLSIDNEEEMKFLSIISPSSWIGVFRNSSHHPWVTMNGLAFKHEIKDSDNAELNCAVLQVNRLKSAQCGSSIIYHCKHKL
T2 sequence (Q13241 32-179 limits assumed, chain 2 of 2): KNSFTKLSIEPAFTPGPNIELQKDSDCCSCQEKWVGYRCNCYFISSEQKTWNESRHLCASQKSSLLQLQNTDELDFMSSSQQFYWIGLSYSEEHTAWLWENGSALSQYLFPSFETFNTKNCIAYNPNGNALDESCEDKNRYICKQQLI

B1: IM-1062 Tribody (other)
heavy: GGSGGSEVQLVESGGGLVQPGGSLRLSCAASGFTFNTYAMNWVRQAPGKGLEWVARIRSKYNNYATYYADSVKDRFTISRDDSKNTLYLQMNSLRAEDTAVYYCVRHGNFGNSYVSWFAYWGQGTMVTVSSASTKGPSVFPLAPSSKSTSGGTAALGCLVKDYFPEPVTVSWNSGALTSGVHTFPAVLQSSGLYSLSSVVTVPSSSLGTQTYICNVNHKPSNTKVDKRVEPKSCPPCGGGGSDIQMTQSPSSLSASVGDRVTITCRASENIYSYLAWYQQKPGKAPKLLIYNAKTLAEGVPSRFSGSGSGTDFTLTISSLQPEDFATYYCQHHYGTPRTFGGGTKVEIKGGGGSGGGGSGGGGSGGGGSQVQLVQSGAEVKKPGASVKVSCKASGYTFTSYWMNWVRQAPGQGLEWMGRIDPYDSETHYAQKLQGRVTMTTDTSTSTAYMELRSLRSDDTAVYYCARGGYDFDVGTLYWFFDVWGQGTTVTVSS
light: GGSGGSQAVVTQEPSLTVSPGGTVTLTCRSSTGAVTTSNYANWVQQKPGQAPRGLIGGTNKRAPGTPARFSGSLLGGKAALTLSGVQPEDEAEYYCALWYSNLWVFGGGTKLTVLGQPKAAPSVTLFPPSSEELQANKATLVCLISDFYPGAVTVAWKADSSPVKAGVETTTPSKQSNNKYAASSYLSLTPEQWKSHRSYSCQVTHEGSTVEKTVAPTECPPCSGGGSDIQMTQSPSSLSASVGDRVTITCRASQGISNYLAWFQQKPGKAPKSLIYRANRLQSGVPSRFSGSGSGTDFTLTISSLQPEDVATYYCLQYDDFPWTFGQGTKLEIKGGGGSGGGGSGGGGSGGGGSQVQLVQSGAEVKKPGASVKVSCKASGYTFTSFWMHWVRQAPGQGLEWMGRIDPNRGGTEYNEKAKSRVTMTADKSTSTAYMELSSLRSEDTAVYYCAGGNPYYPMDYWGQGTTVTVSS
notes: Tri-specific antibody (Tribody): anti-CD3 epsilon Fab with an anti-5T4 scFv and an anti-NKG2A scFv, no regulatory domain; also called the Tribody format
Which results are given for B1?
EC50 [1]: 1.69 nM; EC50 (NKG2A-CD94-ECD-hFc): 5.7 nM; EC50 [2]: 1.78 nM; EC50 [3]: 0.9 nM; EC50 [4]: 16 nM
